Results reported in patent US20240116985A1 (published 2024).
Starred links: 1 amine or outer side, 2 acyl side, 3 side chain; linkers in the order of their positions; H or OH if unused. Positions of bridges follow the written chain, without caps; N, C: chain ends. Non-standard residues stand in square brackets, D forms with d. Primed or numbered codes have the meaning given here. *: point of attachment. PyrS2″ = (S)-3-amino-1-((pent-4-en-1-yloxy)carbonyl)pyrrolidine-3-carboxylic acid (stapling residue), C=CCCCOC(=O)N1CC[C@@](N[*:1])(C(=O)[*:2])C1; (bismethoxyethylamine)GlnR = [bismethoxyethylamine]GlnR, N5,N5-bis(2-methoxyethyl)-L-glutamine, COCCN(CCOC)C(=O)CC[C@H](N[*:1])C(=O)[*:2]; B5(16) = 2-amino-2-(pent-4-en-1-yl)hept-6-enoic acid = 2,2-bis(4-pentenyl)glycine (stitching residue), C=CCCCC(CCCC=C)(N[*:1])C(=O)[*:2]; B5(4) = 2,2-bis(4-pentenyl)glycine = 2-amino-2-(pent-4-en-1-yl)hept-6-enoic acid (stitching residue), C=CCCCC(CCCC=C)(N[*:1])C(=O)[*:2]; (AcPpz)GlnR = [AcPpz]GlnR, (S)-5-(4-acetylpiperazin-1-yl)-2-amino-5-oxopentanoic acid, CC(=O)N1CCN(C(=O)CC[C@H](N[*:1])C(=O)[*:2])CC1; (4Pippip)GlnR″ = (S)-5-([1,4'-bipiperidin]-1'-yl)-2-amino-5-oxopentanoic acid, O=C(CC[C@H](N[*:1])C(=O)[*:2])N1CCC(N2CCCCC2)CC1; PyrS2 = (S)-3-amino-1-((pent-4-en-1-yloxy)carbonyl)pyrrolidine-3-carboxylic acid, C=CCCCOC(=O)N1CC[C@@](N[*:1])(C(=O)[*:2])C1; (AcPpz)GlnR″ = (S)-5-(4-acetylpiperazin-1-yl)-2-amino-5-oxopentanoic acid, CC(=O)N1CCN(C(=O)CC[C@H](N[*:1])C(=O)[*:2])CC1; PyrS = (S)-1-((allyloxy)carbonyl)-3-aminopyrrolidine-3-carboxylic acid, C=CCOC(=O)N1CC[C@@](N[*:1])(C(=O)[*:2])C1; (Morph)GlnR″ = [Morph]GlnR, (S)-2-amino-5-morpholino-5-oxopentanoic acid, O=C(CC[C@H](N[*:1])C(=O)[*:2])N1CCOCC1; MorphAsn = (S)-2-amino-4-morpholino-4-oxobutanoic acid, O=C(C[C@H](N[*:1])C(=O)[*:2])N1CCOCC1; B6 = 2-amino-2-(hex-5-en-1-yl)oct-7-enoic acid, C=CCCCCC(CCCCC=C)(N[*:1])C(=O)[*:2]; 5hexenyl = N-terminal hex-5-enoic acid (acyl cap), C=CCCCC(=O)*; Phe(3-COOH) = N[C@@H](Cc1cccc(C(=O)O)c1)C(=O)O; Phe(2-CF3) = N[C@@H](Cc1ccccc1C(F)(F)F)C(=O)O; Phe(2-Cl) = N[C@@H](Cc1ccccc1Cl)C(=O)O; dαMeGly(allyl) = C=CC[C@@](C)(N)C(=O)O; Bta = N[C@@H](Cc1csc2ccccc12)C(=O)O; αAllylPro = C=CC[C@@]1(C(=O)O)CCCN1; Morpholinoacetyl = O=C(CN1CCOCC1)*; tBuAla = CC(C)(C)C[C@H](N)C(=O)O; 3Thi = N[C@@H](Cc1ccsc1)C(=O)O; Cha = N[C@@H](CC1CCCCC1)C(=O)O; AllylGly = C=CC[C@H](N)C(=O)O; R5 = C=CCCC[C@@](C)(N)C(=O)O; Nle = CCCC[C@H](N)C(=O)O; Abu = CC[C@H](N)C(=O)O; Aib = CC(C)(N)C(=O)O

T1: B-cat-Halo (beta-catenin HaloTag construct expressed in HEK293 cells) (UniProt P35222 1-781)
T1 sequence (looked up): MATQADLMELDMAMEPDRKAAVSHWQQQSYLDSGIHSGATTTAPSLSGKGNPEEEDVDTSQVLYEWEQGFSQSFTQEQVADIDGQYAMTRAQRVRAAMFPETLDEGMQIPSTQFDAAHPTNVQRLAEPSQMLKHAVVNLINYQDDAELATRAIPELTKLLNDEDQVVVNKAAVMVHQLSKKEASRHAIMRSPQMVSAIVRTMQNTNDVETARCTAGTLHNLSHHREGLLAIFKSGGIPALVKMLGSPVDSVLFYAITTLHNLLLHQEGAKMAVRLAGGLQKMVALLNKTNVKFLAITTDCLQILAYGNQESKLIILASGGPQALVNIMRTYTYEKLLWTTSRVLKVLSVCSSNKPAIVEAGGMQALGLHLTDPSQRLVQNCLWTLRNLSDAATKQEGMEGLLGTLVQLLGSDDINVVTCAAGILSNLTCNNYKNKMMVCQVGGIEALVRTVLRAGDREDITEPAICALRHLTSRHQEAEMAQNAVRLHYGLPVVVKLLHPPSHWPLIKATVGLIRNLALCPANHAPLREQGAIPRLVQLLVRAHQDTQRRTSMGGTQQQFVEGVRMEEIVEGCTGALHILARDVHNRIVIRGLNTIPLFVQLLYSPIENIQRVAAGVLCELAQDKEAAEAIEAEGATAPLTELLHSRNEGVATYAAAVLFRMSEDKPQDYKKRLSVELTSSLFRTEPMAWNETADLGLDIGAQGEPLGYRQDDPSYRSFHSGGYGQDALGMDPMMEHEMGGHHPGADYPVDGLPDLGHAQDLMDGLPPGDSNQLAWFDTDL

T2: B-cat-Halo (beta-catenin HaloTag fusion expressed in HEK293 cells) (UniProt P35222 1-781)
T2 sequence (looked up): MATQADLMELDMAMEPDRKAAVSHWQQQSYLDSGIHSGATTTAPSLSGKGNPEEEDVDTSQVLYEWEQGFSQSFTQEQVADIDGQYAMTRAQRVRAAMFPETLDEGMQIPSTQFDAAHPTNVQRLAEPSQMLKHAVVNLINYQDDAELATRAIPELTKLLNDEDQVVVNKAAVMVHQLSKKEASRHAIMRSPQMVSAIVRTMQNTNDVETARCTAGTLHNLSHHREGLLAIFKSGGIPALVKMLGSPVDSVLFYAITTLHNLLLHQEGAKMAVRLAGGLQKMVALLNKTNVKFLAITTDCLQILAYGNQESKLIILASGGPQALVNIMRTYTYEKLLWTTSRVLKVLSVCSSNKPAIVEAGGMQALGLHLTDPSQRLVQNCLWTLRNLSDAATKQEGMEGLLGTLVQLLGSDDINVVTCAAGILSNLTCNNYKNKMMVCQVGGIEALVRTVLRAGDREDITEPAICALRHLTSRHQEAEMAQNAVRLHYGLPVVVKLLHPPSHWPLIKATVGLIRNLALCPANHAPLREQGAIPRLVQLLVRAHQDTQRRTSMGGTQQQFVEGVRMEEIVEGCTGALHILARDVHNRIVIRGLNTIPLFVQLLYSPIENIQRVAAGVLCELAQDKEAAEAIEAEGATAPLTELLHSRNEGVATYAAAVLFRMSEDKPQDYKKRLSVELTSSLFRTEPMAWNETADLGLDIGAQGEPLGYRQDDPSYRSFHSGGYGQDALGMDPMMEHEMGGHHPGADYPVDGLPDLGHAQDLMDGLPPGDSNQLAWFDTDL

T3: B-cat-Halo (UniProt P35222 1-781)
T3 sequence (looked up): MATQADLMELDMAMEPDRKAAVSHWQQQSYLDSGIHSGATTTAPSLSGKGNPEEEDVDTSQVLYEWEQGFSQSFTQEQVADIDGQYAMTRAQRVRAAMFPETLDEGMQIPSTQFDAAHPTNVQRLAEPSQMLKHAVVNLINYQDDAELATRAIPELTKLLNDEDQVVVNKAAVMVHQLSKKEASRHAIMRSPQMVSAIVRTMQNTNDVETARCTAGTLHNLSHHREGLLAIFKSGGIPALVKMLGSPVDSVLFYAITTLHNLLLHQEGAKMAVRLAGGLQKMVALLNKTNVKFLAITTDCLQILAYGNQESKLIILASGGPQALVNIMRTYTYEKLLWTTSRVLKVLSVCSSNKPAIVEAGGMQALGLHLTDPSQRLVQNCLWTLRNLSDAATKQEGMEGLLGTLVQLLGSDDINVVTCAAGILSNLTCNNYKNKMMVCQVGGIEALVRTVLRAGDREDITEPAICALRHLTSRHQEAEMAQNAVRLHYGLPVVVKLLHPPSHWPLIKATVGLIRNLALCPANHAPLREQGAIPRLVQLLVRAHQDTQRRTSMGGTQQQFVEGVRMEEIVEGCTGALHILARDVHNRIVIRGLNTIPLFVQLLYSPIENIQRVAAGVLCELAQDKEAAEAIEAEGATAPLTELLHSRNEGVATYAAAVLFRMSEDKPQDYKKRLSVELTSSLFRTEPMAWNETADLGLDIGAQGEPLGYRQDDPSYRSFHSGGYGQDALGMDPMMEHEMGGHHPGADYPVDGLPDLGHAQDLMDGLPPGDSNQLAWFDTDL


biological target: T1, B-cat-Halo (beta-catenin HaloTag …); test: cell-based or functional assay

Binder	NanoBRET Abs IC50 (uM); Bcat-Halo / TCF4-Luc in HEK293 cells [µM]
Ac-[αAllylPro]D[tBuAla][B6]D[Phe(3-COOH)]AAFL[PyrS][Phe(2-CF3)][Bta]Q-NH2 (staple 1-4, 4-11) [I-2518]	> 20
Ac-[αAllylPro]D[tBuAla][B6]D[Phe(3-COOH)]QAFL[PyrS2][Phe(2-CF3)][Bta]A-NH2 (staple 1-4, 4-11) [I-2517]	30
Ac-[αAllylPro]N[Cha][B5(4)]DQKAFL[PyrS2]F[Bta][MorphAsn]-NH2 (staple 1-4, 4-11; not fully specified (residue 7); printed as Ac-PL3-Asn-Cha-B5-Asp-Gln-[Phc]Lys-Ala-Phe-Leu-PyrS2-Phe-BztA-MorphAsn-NH2) [I-2523]	> 20
Ac-[αAllylPro]N[Cha][B5(4)]DQK(mPEG4)AFL[PyrS2]F[Bta][MorphAsn]-NH2 (staple 1-4, 4-11) [I-2526]	> 20
Ac-[αAllylPro]D[tBuAla][B5(4)]D[Phe(3-COOH)]AAFL[PyrS2″][Phe(2-CF3)][Bta][Me2Gln]-NH2 (staple 1-4, 4-11) [I-2532]	4.5
Ac-[αAllylPro]N[Cha][B5(4)]DQK(Morpholinoacetyl)AFL[PyrS2]F[Bta][MorphAsn]-NH2 (staple 1-4, 4-11) [I-2527]	> 20
5hexenyl-[αAllylPro]D[AllylGly][B5(4)]D[Phe(3-COOH)]AAFL[PyrS2″][Phe(2-CF3)][Bta]Q-NH2 (staple (positions not given here); not fully specified (bridges); printed as 5hexenyl-PL3-Asp-AllylGly-B5-Asp-3COOHF-Ala-Ala-Phe-Leu-PyrS2-2F3MeF-BztA-Gln-NH2; also: staple C=C reduced to CH2-CH2, staple partners not given here) [I-2529]	33.2
Ac-[αAllylPro]N[Cha][B5(4)]DQK(Ac)AFL[PyrS2]F[Bta][MorphAsn]-NH2 (staple 1-4, 4-11) [I-2522]	> 20

biological target: T2, B-cat-Halo (beta-catenin HaloTag fusion …); test: cell-based or functional assay

Binder	NanoBRET Abs IC50 [µM]
Ac-[R5]D[tBuAla][B5(4)]D[Phe(3-COOH)]AAFL[PyrS2″][Phe(2-CF3)][Bta]Q-NH2 (staple 1-4, 4-11; not fully specified; printed as Ac-R5-Asp-Npg-B5-Asp-3COOHF-Ala-Ala-Phe-Leu-PyrS2-2F3MeF-BztA-Gln-NH2) [I-2565]	21
Ac-P[dαMeGly(allyl)]D[tBuAla][B5(4)]D[Phe(3-COOH)]AAFL[PyrS2″][Phe(2-CF3)][Bta]Q-NH2 (staple 5-12, 2-5; also: -CH=CH- in each staple reduced to -CH2-CH2-) [I-2572]	> 20
Ac-[R5]D[tBuAla][B5(4)]D[Phe(3-COOH)]AAFL[PyrS2″][Phe(2-CF3)][Bta]Q-NH2 (staple 1-4, 4-11; also: -CH=CH- in each staple reduced to -CH2-CH2-) [I-2571]	24
Ac-[αAllylPro]D[tBuAla][B5(4)]D[Phe(3-COOH)][Aib]AF[Nle][PyrS2″][3Thi][Bta][(4Pippip)GlnR]-NH2 (staple 1-4, 4-11) [I-2555]	22.1
Ac-[αAllylPro]D[tBuAla][B5(4)]D[Phe(3-COOH)][Aib]AF[Nle][PyrS2″][3Thi][Bta][(AcPpz)GlnR]-NH2 (staple 1-4, 4-11) [I-2556]	7
Ac-[αAllylPro]D[tBuAla][B5(4)]D[Phe(3-COOH)][Aib]AF[Abu][PyrS2″][3Thi][Bta][(bismethoxyethylamine)GlnR]-NH2 (staple 1-4, 4-11) [I-2559]	3.8
Ac-[αAllylPro]D[tBuAla][B5(4)]D[Phe(3-COOH)][Aib]AF[Abu][PyrS2″][3Thi][Bta][(4Pippip)GlnR″]-NH2 (staple 1-4, 4-11) [I-2560]	19.3
Ac-[αAllylPro]D[tBuAla][B5(4)]D[Phe(3-COOH)][Aib]AF[Nle][PyrS2″][3Thi][Bta][(4F3CPip)GlnR]-NH2 (staple 1-4, 4-11) [I-2557]	19.6
Ac-[αAllylPro]D[tBuAla][B5(4)]D[Phe(3-COOH)][Aib]AF[Abu][PyrS2″][3Thi][Bta][(Morph)GlnR″]-NH2 (staple 1-4, 4-11) [I-2558]	14.7
Ac-[αAllylPro]D[tBuAla][B5(4)]D[Phe(3-COOH)][Aib]AF[Nle][PyrS2″][3Thi][Bta][(bismethoxyethylamine)GlnR]-NH2 (staple 1-4, 4-11) [I-2554]	3.3
Ac-[dαMeGly(allyl)]D[tBuAla][B5(4)]D[Phe(3-COOH)]AAFL[PyrS2″][Phe(2-CF3)][Bta]Q-NH2 (staple 1-4, 4-11) [I-2563]	17
Ac-[αAllylPro]D[tBuAla][B5(4)]D[Phe(3-COOH)][Aib]AF[Abu][PyrS2″][3Thi][Bta][(AcPpz)GlnR″]-NH2 (staple 1-4, 4-11) [I-2561]	7.2
Ac-[αAllylPro]D[tBuAla][B5(4)]D[Phe(3-COOH)][Aib]AF[Nle][PyrS2″][3Thi][Bta][(Morph)GlnR″]-NH2 (staple 1-4, 4-11) [I-2553]	8.2

biological target: T3, B-cat-Halo; test: cell-based or functional assay

Binder	NanoBRET Abs IC50 [µM]
Ac-[αAllylPro]D[Cha][B5(16)]DDAAFS[PyrS2″][Phe(2-Cl)][Bta]Q-NH2 (staple 1-4, 4-11) [I-1044]	17.6
Ac-[αAllylPro]D[Cha][B5(16)]DDAAFN[PyrS2″][Phe(2-Cl)][Bta]Q-NH2 (staple 1-4, 4-11) [I-1040]	9.3
Ac-[αAllylPro]D[Cha][B5(16)]DDAAFT[PyrS2″][Phe(2-Cl)][Bta]Q-NH2 (staple 1-4, 4-11) [I-1042]	11.4
